Measurements from article PMC10943098.

Target: PP2A-B55 phosphatase (B55, A and C subunits) of Xenopus egg extracts (Xenopus (endogenous in egg extracts)) (UniProt Q7ZX64)
Assay: enzyme inhibition kinetics (dephosphorylation of p-S113-Arpp19); kinase inactivated interphase extracts diluted 1/50 to 1/200; substrate p-S113-Arpp19 120 to 2000 nM; FAM122A 50, 125 and 250 nM or Thio-S71-Arpp19 1, 2 and 3 nM; quantitative western blot; global fit, competitive mode

Row | Ki | Substance
1 | 0.22 nM | untagged thio-S71-phosphorylated Arpp19 (natural protein)
2 | 28.1 nM | His-Xenopus FAM122A (wildtype) (natural protein)
